Columns and labels:
Assay in all cases: cryo-EM structure
EccB5 = biological target: T1, EccB5 (M. tuberculosis H37Rv, UniProt P9WNQ9 1-506); details: both partners purified
T1 construct: also called inner EccB5; outer EccB5
T1 sequence: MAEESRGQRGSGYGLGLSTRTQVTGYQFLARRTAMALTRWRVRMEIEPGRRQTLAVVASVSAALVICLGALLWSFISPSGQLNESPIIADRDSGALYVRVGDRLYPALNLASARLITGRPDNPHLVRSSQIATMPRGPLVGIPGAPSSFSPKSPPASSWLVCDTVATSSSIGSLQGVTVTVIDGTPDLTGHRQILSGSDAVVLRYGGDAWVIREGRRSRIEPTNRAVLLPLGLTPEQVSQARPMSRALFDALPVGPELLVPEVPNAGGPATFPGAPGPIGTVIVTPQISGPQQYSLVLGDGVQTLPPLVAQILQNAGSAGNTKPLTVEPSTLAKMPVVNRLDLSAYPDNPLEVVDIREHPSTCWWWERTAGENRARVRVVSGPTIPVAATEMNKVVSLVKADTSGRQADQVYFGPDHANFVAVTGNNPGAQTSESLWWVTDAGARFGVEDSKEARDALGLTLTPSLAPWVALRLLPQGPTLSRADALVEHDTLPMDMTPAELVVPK

EccC5 = biological target: T2, EccC5 (M. tuberculosis H37Rv, UniProt P9WNA5 1-1391); details: both partners purified
T2 construct: also called EccC5 ATPase; not shown: TwinStrep, C-terminal, kept
T2 sequence: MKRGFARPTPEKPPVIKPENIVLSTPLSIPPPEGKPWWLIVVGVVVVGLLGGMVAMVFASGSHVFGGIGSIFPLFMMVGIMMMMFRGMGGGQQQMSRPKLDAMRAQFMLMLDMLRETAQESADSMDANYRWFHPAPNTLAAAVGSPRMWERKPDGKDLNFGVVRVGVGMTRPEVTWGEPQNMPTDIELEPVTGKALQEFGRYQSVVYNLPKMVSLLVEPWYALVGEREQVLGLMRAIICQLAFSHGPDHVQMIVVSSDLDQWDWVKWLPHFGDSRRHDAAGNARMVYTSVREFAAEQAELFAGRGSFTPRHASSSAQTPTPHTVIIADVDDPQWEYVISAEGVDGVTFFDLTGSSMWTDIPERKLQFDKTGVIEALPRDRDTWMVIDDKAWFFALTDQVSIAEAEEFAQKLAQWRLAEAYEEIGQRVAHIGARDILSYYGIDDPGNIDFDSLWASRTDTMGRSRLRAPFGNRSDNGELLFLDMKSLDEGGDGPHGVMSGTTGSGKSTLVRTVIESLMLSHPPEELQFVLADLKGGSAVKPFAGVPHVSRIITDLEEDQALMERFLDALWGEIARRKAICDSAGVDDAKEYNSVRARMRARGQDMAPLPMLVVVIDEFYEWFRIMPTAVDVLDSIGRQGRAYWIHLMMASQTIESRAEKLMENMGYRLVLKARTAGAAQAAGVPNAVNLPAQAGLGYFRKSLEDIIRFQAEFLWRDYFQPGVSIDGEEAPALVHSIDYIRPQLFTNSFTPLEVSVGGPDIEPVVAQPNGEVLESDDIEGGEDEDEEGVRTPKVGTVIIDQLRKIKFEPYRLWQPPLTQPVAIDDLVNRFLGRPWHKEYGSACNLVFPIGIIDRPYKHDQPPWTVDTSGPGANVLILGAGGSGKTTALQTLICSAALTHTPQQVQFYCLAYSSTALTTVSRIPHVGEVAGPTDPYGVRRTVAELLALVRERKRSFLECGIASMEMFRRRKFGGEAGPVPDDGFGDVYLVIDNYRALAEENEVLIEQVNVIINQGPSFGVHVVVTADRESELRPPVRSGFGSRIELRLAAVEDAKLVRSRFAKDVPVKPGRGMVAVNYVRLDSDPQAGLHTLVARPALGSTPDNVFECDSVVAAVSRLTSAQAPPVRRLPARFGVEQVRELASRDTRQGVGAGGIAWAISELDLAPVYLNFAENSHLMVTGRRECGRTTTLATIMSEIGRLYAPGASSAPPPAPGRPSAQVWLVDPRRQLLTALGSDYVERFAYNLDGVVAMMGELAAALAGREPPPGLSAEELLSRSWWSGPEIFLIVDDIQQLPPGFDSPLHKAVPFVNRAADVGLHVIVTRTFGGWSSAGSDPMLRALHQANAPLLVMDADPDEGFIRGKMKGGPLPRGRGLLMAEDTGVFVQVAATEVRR

cryo-EM structure = biological target: the molecule itself
MycP5 protease = biological target: T3, MycP5 protease (M. tuberculosis H37Rv, UniProt O53945 40-585); details: both partners purified
T3 construct: also called mycosin
T3 sequence: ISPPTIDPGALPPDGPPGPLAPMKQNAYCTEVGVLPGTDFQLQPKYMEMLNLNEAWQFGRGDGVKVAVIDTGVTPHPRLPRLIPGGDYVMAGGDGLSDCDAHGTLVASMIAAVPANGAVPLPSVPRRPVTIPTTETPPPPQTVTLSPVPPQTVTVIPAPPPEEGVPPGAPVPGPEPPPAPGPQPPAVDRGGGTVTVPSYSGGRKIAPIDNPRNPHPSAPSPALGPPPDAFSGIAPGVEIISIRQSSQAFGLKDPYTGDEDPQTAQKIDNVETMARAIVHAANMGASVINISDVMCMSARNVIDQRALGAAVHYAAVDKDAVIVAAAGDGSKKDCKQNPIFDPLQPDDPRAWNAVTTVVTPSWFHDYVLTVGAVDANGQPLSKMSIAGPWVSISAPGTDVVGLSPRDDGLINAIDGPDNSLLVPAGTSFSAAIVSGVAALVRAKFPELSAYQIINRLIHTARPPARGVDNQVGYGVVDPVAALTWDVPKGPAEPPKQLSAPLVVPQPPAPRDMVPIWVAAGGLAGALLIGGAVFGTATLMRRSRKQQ

B1: EccD5 (natural protein)
chain: MTAVADAPQADIEGVASPQAVVVGVMAGEGVQIGVLLDANAPVSVMTDPLLKVVNSRLRELGEAPLEATGRGRWALCLVDGAPLRATQSLTEQDVYDGDRLWIRFIADTERRSQVIEHISTAVASDLSKRFARIDPIVAVQVGASMVATGVVLATGVLGWWRWHHNTWLTTIYTAVIGVLVLAVAMLLLMRAKTDADRRVADIMLMSAIMPVTVAAAAAPPGPVGSPQAVLGFGVLTVAAALALRFTGRRLGIYTTIVIIGALTMLAALARMVAATSAVTLLSSLLLICVVAYHAAPALSRRLAGIRLPVFPSATSRWVFEARPDLPTTVVVSGGSAPVLEGPSSVRDVLLQAERARSFLSGLLTGLGVMVVVCMTSLCDPHTGQRWLPLILAGFTSGFLLLRGRSYVDRWQSITLAGTAVIIAAAVCVRYALELSSPLAVSIVAAILVLLPAAGMAAAAHVPHTIYSPLFRKFVEWIEYLCLMPIFPLALWLMNVYAAIRYR
notes: also called inner EccD5; outer EccD5
**Q.** Does B1 bind (EccB5)?
**A.** Result: binds

**Q.** Does B1 bind (EccC5)?
**A.** Result: binds

**Q.** What about the “stoichiometry N” value (cryo-EM structure) of the same binder?
**A.** The value was 2.

**Q.** Does B1 bind (MycP5 protease)?
**A.** Result: binds

From article PMC8131196, “Structure and dynamics of a mycobacterial type VII secretion system” (Nature, 2021)
